These results are taken from paper PMC10715591, “EspB and HtpG interact with the type III-A CRISPR/Cas system of Mycobacterium tuberculosis” (Frontiers in Molecular Biosciences, 2023).

In this test the target is T1, MtbHtpG (high-temperature protein G) (Mycobacterium tuberculosis H37Rv, UniProt P9WMJ7 1-647).
T1 construct: also called Chaperone htpG
T1 sequence: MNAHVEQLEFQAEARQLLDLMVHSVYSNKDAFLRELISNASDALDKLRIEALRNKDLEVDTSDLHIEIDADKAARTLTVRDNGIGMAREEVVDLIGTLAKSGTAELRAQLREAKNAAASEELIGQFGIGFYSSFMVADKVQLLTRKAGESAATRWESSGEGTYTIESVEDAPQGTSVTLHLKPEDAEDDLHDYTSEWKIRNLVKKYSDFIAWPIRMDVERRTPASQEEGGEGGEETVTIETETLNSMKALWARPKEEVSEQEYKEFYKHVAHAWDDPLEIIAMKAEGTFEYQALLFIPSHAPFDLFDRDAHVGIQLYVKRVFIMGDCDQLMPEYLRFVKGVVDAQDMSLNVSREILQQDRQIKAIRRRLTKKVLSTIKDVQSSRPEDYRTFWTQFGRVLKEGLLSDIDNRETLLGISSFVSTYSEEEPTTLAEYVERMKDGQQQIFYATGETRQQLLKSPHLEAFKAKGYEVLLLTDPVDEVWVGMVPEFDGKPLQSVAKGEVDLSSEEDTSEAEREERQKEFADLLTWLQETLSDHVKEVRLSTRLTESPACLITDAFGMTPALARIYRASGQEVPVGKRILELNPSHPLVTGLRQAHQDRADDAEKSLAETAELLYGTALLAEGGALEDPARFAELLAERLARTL
The test is described as follows: SPR. The settings on record: both partners purified.

B1: MtbCsm3 (natural protein)
chain: MTTSYAKIEITGTLTVLTGLQIGAGDGFSAIGAVDKPVVRDPLSRLPMIPGTSLKGKVRTLLSRQYGADTETFYRKPNEDHAHIRRLFGDTEEYMTGRLVFRDTKLTNKDDLEARGAKTLTEVKFENAINRVTAKANLRQMERVIPGSEFAFSLVYEVSFGTPGEEQKASLPSSDEIIEDFNAIARGLKLLELDYLGGSGTRGYGQVKFSNLKARAAVGALDGSLLEKLNHELAAV
The molecule B1 yielded a Kd of 59.4 nM, a koff of 0.000914 s⁻¹ and a kon of 15400 M⁻¹ s⁻¹.
